Test results taken from article PMC7969020.

Tested on: TDG (thymine DNA glycosylase), full length (Homo sapiens)
Assay: EMSA
Conditions: EMSA: 5 nM 32P DNA or mononucleosome, TDG 0-1 uM, buffer NB (composition not in material) + 0.2 mM MgCl2, 5% glycerol, 37 C 20 min; 5% native PAGE at 4 C

Row | Substance | Kd
1 | 0-NCP-0 mononucleosome | 185 nM
2 | 0-NCP-30 mononucleosome | 59 nM
3 | 30-NCP-30 mononucleosome | 62 nM
4 | 601 DNA (naked, 147 bp) | 38 nM
